Substrate in data set [1]: NC(=O)C1=CN([C@@H]2O[C@H](COP(=O)(O)OP(=O)(O)OC[C@H]3O[C@@H](n4cnc5c(N)ncnc54)[C@H](OP(=O)(O)O)[C@@H]3O)[C@@H](O)[C@H]2O)C=CC1
The experiment in a line: purified protein. To be noted: 50 μM 8-oxogeranial, 200 mM MOPS pH 7.0, 100 mM NaCl, 1-1.4% THF, 25 °C, 5 nM enzyme, varied: cofactor. It is filed as biochemical, Nepeta racemosa.

Substrate in data set [2]: C/C(C=O)=C\CC/C(C)=C/C=O
The experiment in a line: purified protein. The format is biochemical, Nepeta racemosa. Conditions: 75 μM NADPH, 200 mM MOPS pH 7.0, 100 mM NaCl, 1-1.4% THF, 25 °C, 5 nM enzyme.

B1: NmISY2 (Nepeta racemosa) (protein)
chain: MSLSWWRAGAAKKRMDDDESLLVKQQQQQCVALIVGVTGLVGNSLAEMLPLPDTPGGPWKVYGVARRARPSWNEDQPMTYISCDVSNTGEVEAKLSPLSDVTHIFYATWTSRSTEEENCEANGKMLKNVLDAMIPNCPNLKHICLQTGRFHYVASVVDWKINGSHDTPLTEDLPRLKTNNFYYTQEDILLEEVKRKEGLTWSVHRPGTIFGFSPYSMMNLVGTLCVYAAICKQEGAVLRFPGCKGAWDGHSDCADADLIAEQQIWAALDPHAKNQAFNVSNGDLFKWKHLWKVLADQFGVECGDYEEGQQLRLQDVMKDKGPVWDKIVAENGLSNTKLEDVGKWWFSDTILWNECRLDSMNKSKEHGFLGFRNSKNCFLYWIHKVKAYNLVPSTYT
notes: N-terminal His-tag (pOPINF), E. coli soluBL21 (DE3), Ni-NTA and gel filtration; not fully homogeneous; dimer fraction; Phe at Lys146, Ala at Gly150 positions (natural)
Turning to B1, in the data set “purified protein [1]”, the Km amounted to 26.2 ± 5.1 µM and the catalytic constant (kcat) stood at 0.84 ± 0.06 s⁻¹. In “purified protein [2]”, the Km was determined as 7.3 ± 0.7 µM and the kcat was found to be 0.60 ± 0.02 s⁻¹.

The values above are taken from paper PMC5739345, “Identification of iridoid synthases from Nepeta species: Iridoid cyclization does not determine nepetalactone stereochemistry” (Phytochemistry, 2018).
